Experimental findings from US20150374794A1 (Novo Nordisk, published 2015) are described below.

In general, IC50 refers to the concentration that inhibits the measured activity by half. Read a high IC50 as weaker potency in that assay.

Experiment [1] concerns the target T1, human GLP-1 receptor (human, UniProt P43220 24-463). The experiment can be described thus: cell-based or functional assay.
The target of experiment [2] is T2, human glucagon receptor (human, UniProt P47871 26-477). The experiment can be described thus: cell-based or functional assay.
The target of experiment [3] is T1, human GLP-1 receptor. Nature of the experiment: displacement of 125I-GLP-1(7-36)NH2, membranes with human GLP-1R, SPA. As to the method:
The receptor binding of each compound to the human GLP-1 receptor was measured in a displacement binding assay. […] Each derivative was added in a series of concentrations to isolated membranes containing the human GLP-1 receptor and displacement of the labelled ligand was monitored. The receptor binding was reported as the concentration at which half of the labelled ligand was displaced from the receptor, the IC₅₀ value.
A general note: Displacement assays read how much labelled ligand stays bound in the presence of the test substance.

Experiment [4] has as its target T2, human glucagon receptor. The experiment can be described thus: displacement of 125I-glucagon, membranes with human glucagon receptor, SPA. The procedure:
The receptor binding of each compound to the human glucagon receptor was measured in a displacement binding assay. […] Each derivative was added in a series of concentrations to isolated membranes containing the human glucagon receptor and displacement of the labelled ligand is monitored. The receptor binding was reported as the concentration at which half of the labelled ligand is displaced from the receptor, the IC₅₀ value.

Numbered stars: 1 amine (or outer) side, 2 acyl side, 3 side chain; on linkers, the order of the positions; unused ones are H or OH. Square brackets hold non-standard residues; d marks the D form. Side chains are listed from the residue outwards. Ends that are not written are not given here. * marks the point of attachment. C18 diacid = O=C(O)CCCCCCCCCCCCCCCCC(=O)*; γGlu = O=C(O)[C@H](CCC(=O)[*:2])N[*:1]; AEEA = NCCOCCOCC(=O)O; Aib = CC(C)(N)C(=O)O

T2 sequence (P47871 26-477): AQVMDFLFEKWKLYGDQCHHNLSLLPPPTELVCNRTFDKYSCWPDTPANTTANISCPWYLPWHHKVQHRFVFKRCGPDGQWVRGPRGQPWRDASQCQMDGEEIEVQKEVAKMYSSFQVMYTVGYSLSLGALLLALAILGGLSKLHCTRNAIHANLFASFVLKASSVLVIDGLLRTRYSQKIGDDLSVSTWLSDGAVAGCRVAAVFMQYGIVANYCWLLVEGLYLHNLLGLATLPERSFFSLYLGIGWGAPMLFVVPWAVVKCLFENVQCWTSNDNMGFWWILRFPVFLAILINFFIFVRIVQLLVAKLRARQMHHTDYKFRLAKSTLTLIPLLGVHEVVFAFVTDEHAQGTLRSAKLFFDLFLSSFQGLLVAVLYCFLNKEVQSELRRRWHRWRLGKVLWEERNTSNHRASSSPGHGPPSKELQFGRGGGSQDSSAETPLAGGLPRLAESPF

B1: N^ε29-[(4S)-4-carboxy-4-[[(4S)-4-carboxy-4-[[2-[2-[2-[[2-[2-[2-[[(4S)-4-carboxy-4-(17-carboxyheptadecanoylamino)butanoyl]amino]ethoxy]ethoxy]acetyl]amino]ethoxy … (peptide)
peptide: H[Aib]QGTFTSDLSKYLDSRRAREFVQWLLNK([γGlu-γGlu-AEEA-AEEA-γGlu-C18 diacid])-NH2
modifications: N-terminus assumed
SMILES: CC(C)C[C@H](NC(=O)[C@H](CC(C)C)NC(=O)[C@H](Cc1c[nH]c2ccccc12)NC(=O)[C@H](CCC(N)=O)NC(=O)[C@@H](NC(=O)[C@H](Cc1ccccc1)NC(=O)[C@H](CCC(=O)O)NC(=O)[C@H](CCCNC(=N)N)NC(=O)[C@H](C)NC(=O)[C@H](CCCNC(=N)N)NC(=O)[C@H](CCCNC(=N)N)NC(=O)[C@H](CO)NC(=O)[C@H](CC(=O)O)NC(=O)[C@H](CC(C)C)NC(=O)[C@H](Cc1ccc(O)cc1)NC(=O)[C@H](CCCCN)NC(=O)[C@H](CO)NC(=O)[C@H](CC(C)C)NC(=O)[C@H](CC(=O)O)NC(=O)[C@H](CO)NC(=O)[C@@H](NC(=O)[C@H](Cc1ccccc1)NC(=O)[C@@H](NC(=O)CNC(=O)[C@H](CCC(N)=O)NC(=O)C(C)(C)NC(=O)[C@@H](N)Cc1c[nH]cn1)[C@@H](C)O)[C@@H](C)O)C(C)C)C(=O)N[C@@H](CC(N)=O)C(=O)N[C@@H](CCCCNC(=O)CC[C@H](NC(=O)CC[C@H](NC(=O)COCCOCCNC(=O)COCCOCCNC(=O)CC[C@H](NC(=O)CCCCCCCCCCCCCCCCC(=O)O)C(=O)O)C(=O)O)C(=O)O)C(N)=O
On to B1, for which the “EC50 GLP-1R, CRE luciferase reporter gene assay in BHK cells” value (“EC50 GLP-1R” below) with human GLP-1 receptor [1] was 0.0147 nM. Besides, the “EC50 GlucR, CRE luciferase reporter gene assay in BHK cells” value (shortened to “EC50 GlucR”) with human glucagon receptor [2] was determined as 0.104 nM. For the same molecule, the IC50 amounted to 0.5 nM with human GLP-1 receptor [3] and 7 nM with human glucagon receptor [4].

B2: N^ε29-[(4S)-4-carboxy-4-[[(4S)-4-carboxy-4-[[2-[2-[2-[[(4S)-4-carboxy-4-(17-carboxyheptadecanoylamino)butanoyl]amino]ethoxy]ethoxy]acetyl]amino]butanoyl]amino]b … (peptide)
peptide: H[Aib]QGTFTSDLSKYLDARRAREFVQWLLNK([γGlu-γGlu-AEEA-γGlu-C18 diacid])-NH2
modifications: N-terminus assumed
SMILES: CC(C)C[C@H](NC(=O)[C@H](Cc1ccc(O)cc1)NC(=O)[C@H](CCCCN)NC(=O)[C@H](CO)NC(=O)[C@H](CC(C)C)NC(=O)[C@H](CC(=O)O)NC(=O)[C@H](CO)NC(=O)[C@@H](NC(=O)[C@H](Cc1ccccc1)NC(=O)[C@@H](NC(=O)CNC(=O)[C@H](CCC(N)=O)NC(=O)C(C)(C)NC(=O)[C@@H](N)Cc1c[nH]cn1)[C@@H](C)O)[C@@H](C)O)C(=O)N[C@@H](CC(=O)O)C(=O)N[C@@H](C)C(=O)N[C@@H](CCCNC(=N)N)C(=O)N[C@@H](CCCNC(=N)N)C(=O)N[C@@H](C)C(=O)N[C@@H](CCCNC(=N)N)C(=O)N[C@@H](CCC(=O)O)C(=O)N[C@@H](Cc1ccccc1)C(=O)N[C@H](C(=O)N[C@@H](CCC(N)=O)C(=O)N[C@@H](Cc1c[nH]c2ccccc12)C(=O)N[C@@H](CC(C)C)C(=O)N[C@@H](CC(C)C)C(=O)N[C@@H](CC(N)=O)C(=O)N[C@@H](CCCCNC(=O)CC[C@H](NC(=O)CC[C@H](NC(=O)COCCOCCNC(=O)CC[C@H](NC(=O)CCCCCCCCCCCCCCCCC(=O)O)C(=O)O)C(=O)O)C(=O)O)C(N)=O)C(C)C
With B2, the “EC50 GLP-1R” value with human GLP-1 receptor [1] came out at 0.004 nM. In addition, the “EC50 GlucR” value in the experiment with human glucagon receptor [2] turned out to be 0.012 nM. The half-maximal inhibitory concentration (IC50) with human GLP-1 receptor [3] is 0.3 nM; with human glucagon receptor [4], 5.6 nM.

B3: N^ε29-[(4S)-4-carboxy-4-[[(4S)-4-carboxy-4-[[2-[2-[2-[[(4S)-4-carboxy-4-(17-carboxyheptadecanoylamino)butanoyl]amino]ethoxy]ethoxy]acetyl]amino]butanoyl]amino]b … (peptide)
peptide: H[Aib]QGTFTSDLSKYLDLRRAREFVQWLLNK([γGlu-γGlu-AEEA-γGlu-C18 diacid])-NH2
modifications: N-terminus assumed
SMILES: CC(C)C[C@H](NC(=O)[C@H](CC(C)C)NC(=O)[C@H](Cc1c[nH]c2ccccc12)NC(=O)[C@H](CCC(N)=O)NC(=O)[C@@H](NC(=O)[C@H](Cc1ccccc1)NC(=O)[C@H](CCC(=O)O)NC(=O)[C@H](CCCNC(=N)N)NC(=O)[C@H](C)NC(=O)[C@H](CCCNC(=N)N)NC(=O)[C@H](CCCNC(=N)N)NC(=O)[C@H](CC(C)C)NC(=O)[C@H](CC(=O)O)NC(=O)[C@H](CC(C)C)NC(=O)[C@H](Cc1ccc(O)cc1)NC(=O)[C@H](CCCCN)NC(=O)[C@H](CO)NC(=O)[C@H](CC(C)C)NC(=O)[C@H](CC(=O)O)NC(=O)[C@H](CO)NC(=O)[C@@H](NC(=O)[C@H](Cc1ccccc1)NC(=O)[C@@H](NC(=O)CNC(=O)[C@H](CCC(N)=O)NC(=O)C(C)(C)NC(=O)[C@@H](N)Cc1c[nH]cn1)[C@@H](C)O)[C@@H](C)O)C(C)C)C(=O)N[C@@H](CC(N)=O)C(=O)N[C@@H](CCCCNC(=O)CC[C@H](NC(=O)CC[C@H](NC(=O)COCCOCCNC(=O)CC[C@H](NC(=O)CCCCCCCCCCCCCCCCC(=O)O)C(=O)O)C(=O)O)C(=O)O)C(N)=O
Regarding B3, the “EC50 GLP-1R” value with human GLP-1 receptor [1] was 0.013 nM. The “EC50 GlucR” value with human glucagon receptor [2] amounted to 0.024 nM. For the same molecule, the half-inhibitory concentration (IC50) was 1.2 nM with human GLP-1 receptor [3] and 29.4 nM in the experiment with human glucagon receptor [4].

B4: N^ε29-[(4S)-4-carboxy-4-[[(4S)-4-carboxy-4-[[2-[2-[2-[[2-[2-[2-[[(4S)-4-carboxy-4-(17-carboxyheptadecanoylamino)butanoyl]amino]ethoxy]ethoxy]acetyl]amino]ethoxy … (peptide)
peptide: H[Aib]QGTFTSDLSKYLDSRAAREFVQWLLNK([γGlu-γGlu-AEEA-AEEA-γGlu-C18 diacid])-NH2
modifications: N-terminus assumed
SMILES: CC(C)C[C@H](NC(=O)[C@H](CC(C)C)NC(=O)[C@H](Cc1c[nH]c2ccccc12)NC(=O)[C@H](CCC(N)=O)NC(=O)[C@@H](NC(=O)[C@H](Cc1ccccc1)NC(=O)[C@H](CCC(=O)O)NC(=O)[C@H](CCCNC(=N)N)NC(=O)[C@H](C)NC(=O)[C@H](C)NC(=O)[C@H](CCCNC(=N)N)NC(=O)[C@H](CO)NC(=O)[C@H](CC(=O)O)NC(=O)[C@H](CC(C)C)NC(=O)[C@H](Cc1ccc(O)cc1)NC(=O)[C@H](CCCCN)NC(=O)[C@H](CO)NC(=O)[C@H](CC(C)C)NC(=O)[C@H](CC(=O)O)NC(=O)[C@H](CO)NC(=O)[C@@H](NC(=O)[C@H](Cc1ccccc1)NC(=O)[C@@H](NC(=O)CNC(=O)[C@H](CCC(N)=O)NC(=O)C(C)(C)NC(=O)[C@@H](N)Cc1c[nH]cn1)[C@@H](C)O)[C@@H](C)O)C(C)C)C(=O)N[C@@H](CC(N)=O)C(=O)N[C@@H](CCCCNC(=O)CC[C@H](NC(=O)CC[C@H](NC(=O)COCCOCCNC(=O)COCCOCCNC(=O)CC[C@H](NC(=O)CCCCCCCCCCCCCCCCC(=O)O)C(=O)O)C(=O)O)C(=O)O)C(N)=O
For B4, the “EC50 GLP-1R” value in the experiment with human GLP-1 receptor [1] worked out at 0.0032 nM. The “EC50 GlucR” value in the experiment with human glucagon receptor [2] turned out to be 0.699 nM. The IC50 with human GLP-1 receptor [3] is 0.2 nM; with human glucagon receptor [4] it was 381 nM.

Take H[Aib]QGTFTSDLSKYLESKRAREFVQWLLKT-NH2 (not fully specified): the “EC50 GLP-1R” value in the experiment with human GLP-1 receptor [1] came out at 0.0118 nM. Further, the “EC50 GlucR” value with human glucagon receptor [2] came to 0.0871 nM. For the same molecule, the IC50 was 0.2 nM in the experiment with human GLP-1 receptor [3] and 7.1 nM with human glucagon receptor [4].

In the case of H[Aib]QGTFTSDLSKYLDKRAAREFVAWLLNT-NH2 (not fully specified), in the experiment with human GLP-1 receptor [1], the “EC50 GLP-1R” value amounted to 0.0023 nM. The “EC50 GlucR” value in the experiment with human glucagon receptor [2] came out at 0.22 nM. In addition, the IC50 turned out to be 0.1 nM with human GLP-1 receptor [3] and 11 nM with human glucagon receptor [4].
